Data on two molecules can be found in article PMC11931385, “Structural and functional analysis of cancer-associated missense variants in the retinoblastoma protein pocket domain” (The Journal of Biological Chemistry, 2025).

No end group written: not given here. TMR = tetramethyl rhodamine dye

What all share (test): fluorescence polarisation; 37 °C, after the 25 °C reading ramped over 7 min to 37 °C and 2 min incubation; unlabeled Rb^P against 1.5 nM TMR-E2F1^TD or 7.5 nM TMR-E7^LxCxE; 25 mM Tris pH 8.0, 200 mM NaCl, 1 mM DTT, 0.1% Tween-20; apparent Kd
Holding throughout (settings): both partners purified
Background: Polarisation of emitted light reports the rotation of a fluorescent probe.

One assay deals with T1, Rb^P T664A (human, UniProt P06400 380-788, T664A).
T1 construct: also called variant 50
T1 sequence (looked up): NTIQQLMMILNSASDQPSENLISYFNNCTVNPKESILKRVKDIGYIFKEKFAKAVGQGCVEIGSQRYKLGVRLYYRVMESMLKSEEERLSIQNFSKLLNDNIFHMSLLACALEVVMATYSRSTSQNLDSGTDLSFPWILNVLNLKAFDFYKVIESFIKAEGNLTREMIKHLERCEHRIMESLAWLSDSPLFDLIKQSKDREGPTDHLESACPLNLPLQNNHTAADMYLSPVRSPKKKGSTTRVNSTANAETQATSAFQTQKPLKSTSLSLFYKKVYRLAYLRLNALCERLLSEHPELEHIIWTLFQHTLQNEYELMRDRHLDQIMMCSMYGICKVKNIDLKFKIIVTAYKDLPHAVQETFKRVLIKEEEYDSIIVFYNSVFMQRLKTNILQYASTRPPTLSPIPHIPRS

For the next assay, the target named is T2, Rb^P R451S (human, UniProt P06400 380-788, R451S).
T2 construct: also called variant 7
T2 sequence (looked up): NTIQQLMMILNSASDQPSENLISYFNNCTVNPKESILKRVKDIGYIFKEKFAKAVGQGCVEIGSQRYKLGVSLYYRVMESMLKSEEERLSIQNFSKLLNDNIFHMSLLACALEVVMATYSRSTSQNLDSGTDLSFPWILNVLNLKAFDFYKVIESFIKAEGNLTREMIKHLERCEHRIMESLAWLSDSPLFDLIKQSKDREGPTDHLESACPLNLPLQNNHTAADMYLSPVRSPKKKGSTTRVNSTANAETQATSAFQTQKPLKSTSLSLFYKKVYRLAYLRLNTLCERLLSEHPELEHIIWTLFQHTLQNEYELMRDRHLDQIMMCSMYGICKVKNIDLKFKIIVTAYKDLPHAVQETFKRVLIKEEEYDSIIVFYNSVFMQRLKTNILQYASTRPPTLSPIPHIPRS

The target of the next assay is T3, Rb^P A490T (human, UniProt P06400 380-788, A490T).
T3 construct: also called variant 16
T3 sequence (looked up): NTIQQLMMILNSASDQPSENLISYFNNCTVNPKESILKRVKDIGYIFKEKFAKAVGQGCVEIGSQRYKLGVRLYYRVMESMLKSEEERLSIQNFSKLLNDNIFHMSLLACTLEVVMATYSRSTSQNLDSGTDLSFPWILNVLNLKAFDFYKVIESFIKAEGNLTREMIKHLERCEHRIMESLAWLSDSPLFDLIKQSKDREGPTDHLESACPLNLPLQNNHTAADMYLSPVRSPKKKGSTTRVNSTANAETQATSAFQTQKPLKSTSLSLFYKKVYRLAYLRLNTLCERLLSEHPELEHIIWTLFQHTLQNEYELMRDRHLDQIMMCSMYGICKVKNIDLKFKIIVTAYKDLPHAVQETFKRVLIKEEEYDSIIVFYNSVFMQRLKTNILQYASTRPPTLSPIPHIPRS

In another assay the target is T4, Rb^P R556Q (human, UniProt P06400 380-788, R556Q).
T4 construct: also called variant 30
T4 sequence (looked up): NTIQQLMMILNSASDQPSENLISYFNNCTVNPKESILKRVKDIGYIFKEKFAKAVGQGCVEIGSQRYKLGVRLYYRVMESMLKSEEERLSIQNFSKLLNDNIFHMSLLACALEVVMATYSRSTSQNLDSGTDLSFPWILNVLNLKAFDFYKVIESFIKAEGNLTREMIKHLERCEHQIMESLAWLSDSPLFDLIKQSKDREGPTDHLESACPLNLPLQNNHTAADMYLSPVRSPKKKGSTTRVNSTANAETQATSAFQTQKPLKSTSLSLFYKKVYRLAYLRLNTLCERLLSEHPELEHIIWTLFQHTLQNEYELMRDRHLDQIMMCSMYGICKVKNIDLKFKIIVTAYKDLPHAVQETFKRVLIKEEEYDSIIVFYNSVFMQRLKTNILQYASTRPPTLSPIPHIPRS

For the next assay, the target named is T5, Rb^P S612P (human, UniProt P06400 380-788, S612P).
T5 construct: also called variant 39
T5 sequence (looked up): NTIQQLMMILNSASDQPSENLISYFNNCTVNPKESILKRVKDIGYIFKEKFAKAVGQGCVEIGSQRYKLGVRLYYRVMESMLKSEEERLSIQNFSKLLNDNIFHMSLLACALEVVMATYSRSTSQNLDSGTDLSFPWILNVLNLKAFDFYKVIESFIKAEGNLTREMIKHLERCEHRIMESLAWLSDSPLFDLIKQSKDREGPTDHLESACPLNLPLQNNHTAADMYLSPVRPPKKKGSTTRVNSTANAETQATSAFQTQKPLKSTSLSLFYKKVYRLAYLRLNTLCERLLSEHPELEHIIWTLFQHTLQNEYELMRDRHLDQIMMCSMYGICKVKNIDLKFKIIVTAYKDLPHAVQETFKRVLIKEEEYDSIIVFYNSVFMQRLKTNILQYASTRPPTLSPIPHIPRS

B1: TMR-E2F1^TD, peptide of the E2F1 transactivation domain (peptide)
peptide: {TMR}-GEGIRDLFDCDFGDLTPLD
notes: also called E2F^TD; source: synthetic peptide, bought: GenScript
With B1, the Kd with Rb^P T664A was determined as 24 nM; in the assay with Rb^P R451S it was 44 nM; with Rb^P A490T, 115 nM; in the assay with Rb^P R556Q, 48 nM; with Rb^P S612P, 49 nM.

B2: TMR-E7^LxCxE, LxCxE peptide of the E7 oncoprotein from HPV (peptide)
peptide: DLYCYEQLN
modifications: also: TMR label, position not given here
notes: source: synthetic peptide, bought: GenScript
As for B2, the Kd worked out at 16 nM with Rb^P T664A; 17 nM in the assay with Rb^P R451S; 33 nM in the assay with Rb^P A490T; 13 nM with Rb^P R556Q; 17 nM with Rb^P S612P.
